Test results: patent publication US10001489B2, “Method for constructing a novel affinity peptide library for binding immunoglobulin G based on a protein affinity model of protein A” (TIANJIN UNIVERSITY, priority 2012, dated 2018)
Where no end group is shown, it is not given here.

How the values were obtained:
hIgG = test: Affinity chromatography, pulse injection of hIgG on peptide-coupled Thiopropyl Sepharose 6B column; assay type: binding, human
Method: (§1) Peptide powders purchased from GL Biochem Ltd. (Shanghai, China) had been purified by high performance liquid chromatography (HPLC) with a purity of 96.36%. 1 g of resin (Thiopropyl Sepharose 6B, purchased from GE Healthcare) was weighed and washed for 15 min with 200 mL of deionized water in a buchner funnel. After being filtered and getting rid of water, two aliquots of 1.0 g of drained gel were transferred into two 25-mL Erlenmeyer flasks, respectively. Then 6 mL and 10.7 mL of linking buffer (0.1 M Tris-HCl, pH 7.5, 0.5 M NaCl and 1 mM EDTA) were added to the two flasks respectively, to fully pre-equilibrate the gels. […] The peptides were fully mixed with the gels in corresponding flasks and initial peptide concentrations of 1.0 mg/mL were obtained. The mixtures were reacting in a shaking bath at a rate of 180 rpm, at 25° C. for 2 h. 500 μL of supernatant was acquired each hour for analyzing the residue peptide content in the reaction solution with reversed-phase high pressure liquid chromatography (RP-HPLC). […] After the reaction was finished, the reaction system was centrifuged and the supernatant was removed, then the gel was washed repeatedly with washing buffer (10 mM PBS, pH 7.2, 150 mM NaCl) in a buchner funnel to get rid of the free peptides. Finally, equilibriation buffer (20 mmol/L citrate buffers, pH 5.0-5.5; or 20 mmol/L PBS buffers, pH 5.5-6.0) was used to suspend the gel to 1 mL, and after being degassed, the gel was slowly loaded into the glass column (Tricorn chromatogram column, Tricorn 5×5, GE healthcare). The column was first washed with equilibration buffer at 0.1 mL/min, and then the speed of the buffer was increased to 0.2 mL/min when the column pressure was stable, and the speed of the buffer was increased according to above operation till it reached 1.0 mL/min.
(1) Equilibration: the affinity column was washed with equilibration buffer until a stable baseline was reached. The flow rate of buffer was 0.5 mL/min, keep washing another five column volumes (CVs) before sample injection. […]

[1] = biological target: bovine serum albumin (BSA) (Bos taurus, UniProt P02769); test: Affinity chromatography, BSA on peptide-coupled Thiopropyl Sepharose 6B column; assay type: binding
Chain of bovine serum albumin (BSA) (P02769 25-607): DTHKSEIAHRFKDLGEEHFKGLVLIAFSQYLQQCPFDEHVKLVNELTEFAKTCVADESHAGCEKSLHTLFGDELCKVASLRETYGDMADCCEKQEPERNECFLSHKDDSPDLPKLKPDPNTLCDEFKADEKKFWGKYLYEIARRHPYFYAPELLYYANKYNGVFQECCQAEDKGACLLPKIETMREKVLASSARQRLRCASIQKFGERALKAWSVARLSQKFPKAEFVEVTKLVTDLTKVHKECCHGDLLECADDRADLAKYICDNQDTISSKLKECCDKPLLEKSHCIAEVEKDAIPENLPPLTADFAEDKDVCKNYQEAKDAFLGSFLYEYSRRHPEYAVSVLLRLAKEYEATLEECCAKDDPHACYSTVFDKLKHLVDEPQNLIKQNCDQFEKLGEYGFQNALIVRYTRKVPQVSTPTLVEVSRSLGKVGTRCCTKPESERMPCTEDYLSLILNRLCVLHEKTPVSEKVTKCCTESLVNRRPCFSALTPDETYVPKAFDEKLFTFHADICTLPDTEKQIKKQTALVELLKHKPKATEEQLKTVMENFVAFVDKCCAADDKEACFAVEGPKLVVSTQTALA
Method: as §1
(1) Equilibration: the affinity column was washed with equilibration buffer until a stable baseline was reached. The flow rate of buffer was 0.5 mL/min, keep washing another five column volumes (CVs) before sample injection.
(2) Sample injection: unless specifically stated, all protein samples were prepared by equilibration buffer. After sample injection, the column was equilibrated with 5-10 CVs of equilibration buffer (20 mmol/L citrate buffer, pH≤5.5; or 20 mmol/L PBS buffer, pH≥5.5). The sample loading amount was 100 μL, protein sample concentration was 1.0 mg/mL, and the flow rate was 0.5 mL/min.
(3) Elution: the column was washed with 5-10 CVs of elution buffer, and the flow rate was 0.8 mL/min.
(4) Storage: first 10 CVs of deionized water was used to wash the column, followed by another 10 CVs of 20% ethanol solution. Then the affinity gel was stored in this solution. All buffers should be filtered through a filter and degassed before use.

[2] = biological target: bovine serum albumin (bovine) (UniProt P02769); test: affinity chromatography, peptide immobilized on Thiopropyl Sepharose 6B, pH 6.0
Chain of bovine serum albumin (bovine) (P02769 25-607 limits assumed): as the sequence (P02769 25-607) above

[3] = biological target: bovine serum albumin (bovine) (UniProt P02769); test: affinity chromatography, peptide immobilized on Thiopropyl Sepharose 6B, pH 5.5

| binding of hIgG by immobilised peptide ligand (hIgG; pH 5.5-7.0) | binding of hIgG by immobilised peptide ligand (hIgG; pH 6.0, 20 mM PBS) | binding of BSA by immobilised peptide ligand ([1]; pH 5.5) | binding of BSA by immobilised peptide ligand (fraction of BSA bound) ([1]; pH 6.0) | binding of BSA by immobilised peptide ligand ([1]; pH 6.5) | fraction of loaded protein bound (fraction of BSA) [2] | fraction of loaded protein bound (fraction of BSA) [3] | binding of hIgG by immobilised peptide ligand (hIgG; pH 5.0-6.0) | Sequence |
| --- | --- | --- | --- | --- | --- | --- | --- | --- |
| could bind a lot of hIgGs | could bind almost all hIgGs | about half | ⅓ | trace | – | – | – | FYCHWALE (not fully specified (residue 3)) [synthesized and immobilized on Thiopropyl Sepharose 6B] |
| – | – | – | – | – | 0.333 | 0.5 | – | FYCHWALE peptide ligand |
| – | – | large binding | – | – | – | – | strong binding | FYWHCLDE (not fully specified (residue 5)) [synthesized and immobilized on Thiopropyl Sepharose 6B] |
